Reference: article PMC3519907 (PLoS Biology, 2012)

Target: the molecule itself
Assay: crystal structure; ΔNC-Fab complex 10-20 mg/mL, 25%-35% PEG400, 100 mM Ca-acetate or 300 mM KCl, pH 8.5-9.5, 22°C; dataset refined to 2.5 Å

B1: ΔNC CLC-ec1 (domain or fragment, Escherichia coli, UniProt P37019 1-460, looked up)
chain: MRRRQLIRQLLERDKTPLAILFMAAVVGTLVGLAAVAFDKGVAWLQNQRMGALVHTADNYPLLLTVAFLCSAVLAMFGYFLVRKYAPEAGGSGIPEIEGALEDQRPVRWWRVLPVKFFGGLGTLGGGMVLGREGPTVQIGGNIGRMVLDIFRLKGDEARHTLLATGAAAGLAAAFNAPLAGILFIIEEMRPQFRYTLISIKAVFIGVIMSTIMYRIFNHEVALIDVGKLSDAPLNTLWLYLILGIIFGIFGPIFNKWVLGMQDLLHRVHGGNITKWVLMGGAIGGLCGLLGFVAPATSGGGFNLIPIATAGNFSMGMLVFIFVARVITTLLCFSSGAPGGIFAPMLALGTVLGTAFGMVAVELFPQYHLEAGTFAIAGMGALLAASIRAPLTGIILVLEMTDNYQLILPMIITGLGATLLAQFTGGKPLYSAILARTLAKQEAEQ
notes: CLC-ec1, Cl-/H+ antiporter of Escherichia coli; Homodimer in the crystal (chains A and B); also called trimmed construct; source: E. coli, purified in decylmaltoside (His-tag removed, Superdex 200 gel filtration)
binding result: binds
